In patent US7763418B2, “Detection of Rho proteins” (Cytoskeleton, Inc., priority 2005, dated 2010):

How the values were obtained:
RhoA [1] = experiment: RhoA G-LISA of calpeptin treated HeLa cell lysates; format: cell-based; conditions: calpeptin 30 minutes
Description: Active Rho protein (typically 7-15 μg total cell lysate or 1-5 ng of constitutively active recombinant protein) were either added directly to the effector bound G-LISA plate (Rac1 and Cdc42 G-LISAs) or diluted with an equal volume of Binding Buffer (20% PEG 8000, Sigma, St. Louis, Mo.) prior to adding to effector bound plates (RhoA G-LISA). The reactions were incubated for 30 minutes at 4° C. on a microtiter titer plate shaker after which wells were washed once with 200 μl of PBST (PBS pH 7.2, 0.05% Tween-20) and immediately treated with 200 μl of Antigen Presenting Buffer (1% trichloroacetic acid (TCA)) for 2-5 minutes at room temperature. Wells were then washed three times with 200 μl each of PBST and primary antibody is added typically at 1 μg/ml (RhoA specific), 0.25 μg/ml (Rac1 specific), 1 μg/ml (Cdc42 specific) and incubated at room temperature for 45 minutes (incubation at 4° C. gave similar results). […] After three washes each of 200 μl PBST the activated Rho proteins are detected using absorbance or luminescence detection as described below. […]
Referring to FIG. 10, 25 μl of serum starved or Calpeptin treated (RhoA activated) Hela cell lysate at concentration of 4, 2, 1, 0.5, 0.25, 0.12, 0.06 mg/ml were mixed with same volume of Binding Buffer and subjected to RhoA G-LISA assay followed by absorbance detection. […] All readings had buffer only background subtracted. […]

RhoA [2] = experiment: GST-Rhotekin-RBD pull-down assay of calpeptin treated HeLa cell lysates; format: cell-based; conditions: calpeptin 30 minutes, 500 μg lysate
Cdc42 (61L) = target: T1, Cdc42 (61L) (Homo sapiens, UniProt P60953, Q61L); experiment: G-LISA on effector-GBD plates with constitutively active Cdc42; format: binding; conditions: 5 ng constitutively active Cdc42; detection with the plate's GTPase specific antibody
T1 construct: His; purchased Cytoskeleton Inc. C6101
T1 sequence (P60953 whole entry Q61L): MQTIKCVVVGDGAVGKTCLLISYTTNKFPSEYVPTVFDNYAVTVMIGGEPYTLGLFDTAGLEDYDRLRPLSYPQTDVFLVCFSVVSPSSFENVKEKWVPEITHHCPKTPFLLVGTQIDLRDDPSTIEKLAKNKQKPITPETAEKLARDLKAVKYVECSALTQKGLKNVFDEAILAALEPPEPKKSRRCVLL
Description: (§1) Effector-GBD peptide (ROCK1, POSH or WASP, see Table 2) was diluted in coating buffer (PBS pH 7.2, plus 1 mM EDTA) to a final concentration 0.05 mg/ml and 5 μg of peptide was added to the wells of maleimide plates (Corning Inc., Catalog #2510). Plates were incubated at 21° C. for 2 hours, washed twice in PBS pH 7.2. Plates were blocked for 1 hour at room temperature with milk (typically 0.1-5%, depending upon effector-GBD). After two washes with PBS (pH 7.2), Lyophilization Buffer was added to each well (5% sucrose and 1% dextran) and the plates were lyophilized and stored desiccated at 4° C. […]
(§2) Active Rho protein (typically 7-15 μg total cell lysate or 1-5 ng of constitutively active recombinant protein) were either added directly to the effector bound G-LISA plate (Rac1 and Cdc42 G-LISAs) or diluted with an equal volume of Binding Buffer (20% PEG 8000, Sigma, St. Louis, Mo.) prior to adding to effector bound plates (RhoA G-LISA). […] After three washes each of 200 μl PBST the activated Rho proteins are detected using absorbance or luminescence detection as described below.
Referring to FIG. 2C, lysis buffer only (Blank), 5 ng of Cdc42 (61L) or Rac1 (61L) were subjected to a Cdc42 G-LISA assay as detailed in materials and methods (Example 2), and Cdc42 signal was detected by absorbance at 490 nm as described in materials and methods (Example 2).

Rac1 (61L) = target: T2, Rac1 (61L) (Homo sapiens, UniProt P63000, Q61L); experiment: G-LISA on effector-GBD plates with constitutively active Rac1; format: binding; conditions: 5 ng constitutively active Rac1; detection with the plate's GTPase specific antibody
T2 construct: His; purchased Cytoskeleton Inc. R6101
Description: as §1, §2
Referring to FIG. 2B, lysis buffer only (Blank), 5 ng of Rac1 (61L), or RhoA (63L) were subjected to a Rac1 G-LISA assay as detailed in materials and methods (Example 2), and Rac1 signal was detected by absorbance at 490 nm as described in materials and methods (Example 2). […]

RhoA (63L) = target: T3, RhoA (63L) (Homo sapiens, UniProt P61586, Q63L); experiment: G-LISA on effector-GBD plates with constitutively active RhoA; format: binding; conditions: 5 ng constitutively active RhoA; detection with the plate's GTPase specific antibody
T3 construct: purchased Cytoskeleton Inc. R6301
T3 sequence (P61586 whole entry Q63L): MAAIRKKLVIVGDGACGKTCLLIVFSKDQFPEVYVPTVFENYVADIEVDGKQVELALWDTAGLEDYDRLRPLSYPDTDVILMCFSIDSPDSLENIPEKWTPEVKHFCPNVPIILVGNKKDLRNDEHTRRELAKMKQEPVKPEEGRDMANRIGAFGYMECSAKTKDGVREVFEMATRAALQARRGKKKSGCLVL
Description: as §1, §2
Referring to FIG. 2A, lysis buffer only (Blank), 5 ng of RhoA (63L), Cdc42 (61L) or Rac1 (61L) were subjected to a RhoA G-LISA assay as detailed in materials and methods, and RhoA signal was detected by luminometry as described in materials and methods. […]

Rac1 = Rac1 (Homo sapiens, UniProt P63000); conditions: read-out: published affinity Rac1:PAK; cited from earlier work

With `CCCC[C@@H](C=O)NC(=O)[C@H](CC(C)C)NC(=O)OCc1ccccc1` [calpeptin] the “RhoA fold activation versus serum starved, G-LISA” value (RhoA [1]; lysate 0.25 mg/ml to 2 mg/ml (6.25-50 μg)) was “approximately 2 fold”, the “RhoA fold activation versus serum starved, G-LISA” value (RhoA [1]; lysate 4 mg/ml (100 μg)) was 1.7 fold and the “RhoA fold activation above serum starved lysate, pull-down densitometry” value (RhoA [2]) was “approximately 2 fold”.

B1: ROCK1-GBD: Histidine-tagged GBD of human ROCK1 (amino acids 847-1024), carboxy terminal cysteine, linked to maleimide plate (protein)
chain: EAEQYFSTLYKTQVKELKEEIEEKNRENLKKIQELQNEKETLATQLDLAETKAESEQLARGLLEEQYFELTQESKKAASRNRQEITDKDHTVSRLEEANSMLTKDIEILRRENEELTEKMKKAEEEYKLEKEEEISNLKAAFEKNINTERTLKTQAVNKLAEIMNRKDFKIDRKKANTC
modifications: left off: small tags and cut ends
For B1, the “G-LISA signal above background (buffer only)” value (“G-LISA signal above background” for short) (Cdc42 (61L)) was “did not give a signal above background” and the “G-LISA signal above background” value (Rac1 (61L)) was “did not give a signal above background”.

B2: rhotekin-Cys: synthetic rhotekin-GBD, three internal cysteines replaced, cysteine at carboxy terminal (protein)
chain: ILEDLNMLYIRQMALSLEDTELQRKLDHEIRMRDGAEKLLAALSQREQALEATKSLLVSNSRILSYMGELQRRKEAQVLEKTGRRCS
For B2, the “G-LISA signal above background” value (RhoA (63L)) was 6 fold.

B3: POSH: Histidine-tagged GBD of human POSH (amino acids 291-363) linked to maleimide plate (protein, UniProt Q7Z6J0 1-888, looked up)
E3 ubiquitin-protein ligase …: MDESALLDLLECPVCLERLDASAKVLPCQHTFCKRCLLGIVGSRNELRCPECRTLVGSGVEELPSNILLVRLLDGIKQRPWKPGPGGGSGTNCTNALRSQSSTVANCSSKDLQSSQGGQQPRVQSWSPPVRGIPQLPCAKALYNYEGKEPGDLKFSKGDIIILRRQVDENWYHGEVNGIHGFFPTNFVQIIKPLPQPPPQCKALYDFEVKDKEADKDCLPFAKDDVLTVIRRVDENWAEGMLADKIGIFPISYVEFNSAAKQLIEWDKPPVPGVDAGECSSAAAQSSTAPKHSDTKKNTKKRHSFTSLTMANKSSQASQNRHSMEISPPVLISSSNPTAAARISELSGLSCSAPSQVHISTTGLIVTPPPSSPVTTGPSFTFPSDVPYQAALGTLNPPLPPPPLLAATVLASTPPGATAAAAAAGMGPRPMAGSTDQIAHLRPQTRPSVYVAIYPYTPRKEDELELRKGEMFLVFERCQDGWFKGTSMHTSKIGVFPGNYVAPVTRAVTNASQAKVPMSTAGQTSRGVTMVSPSTAGGPAQKLQGNGVAGSPSVVPAAVVSAAHIQTSPQAKVLLHMTGQMTVNQARNAVRTVAAHNQERPTAAVTPIQVQNAAGLSPASVGLSHHSLASPQPAPLMPGSATHTAAISISRASAPLACAAAAPLTSPSITSASLEAEPSGRIVTVLPGLPTSPDSASSACGNSSATKPDKDSKKEKKGLLKLLSGASTKRKPRVSPPASPTLEVELGSAELPLQGAVGPELPPGGGHGRAGSCPVDGDGPVTTAVAGAALAQDAFHRKASSLDSAVPIAPPPRQACSSLGPVLNESRPVVCERHRVVVSYPPQSEAELELKEGDIVFVHKKREDGWFKGTLQRNGKTGLFPGSFVENI
For B3, the “G-LISA signal above background” value (RhoA (63L)) was “barely above background”.

B4: WASP: Histidine-tagged GBD of human WASP (amino acids 201-321), carboxy terminal cysteine, linked to maleimide plate (protein)
chain: DIQNPDITSSRYRGLPAPGPSPADKKRSGKKKISKADIGAPSGFKHVSHVGWDPQNGFDVNNLDPDLRSLFSRAGISEAQLTDAETSKLIYDFIEDQGGLEAVRQEMRRQEPLPPPPPPSRC
modifications: left off: small tags and cut ends
notes: Histidine-tagged GBD of human WASP (amino acids 201-321), carboxy terminal cysteine, linked to maleimide plate
With B4 the “G-LISA signal above background” value (Rac1 (61L)) was “did not give a signal above background”.

B5: PAK-GST: GST-tagged GTPase Binding Domain of human PAK1 (amino acids 68-151), Rac1/Cdc42 effector (protein)
chain: KEKERPEISLPSDFEHTIHVGFDAVTGEFTGMPEQWARLLQTSNITKSEQKKNPQAVLDVLEFYNSKKTSNSQKYMSFTDKSAEC
modifications: left off: a dimerising Fc or GST
For B5, the Kd (Rac1) is listed as about 20 nM.
